Laboratory results: patent US20160031959A1

Target: recombinant BAX protein (UniProt Q07812)
Test: fluorescence polarization, FITC-labeled peptide incubated with recombinant BAX at various concentrations, 60 min, room temperature

recombinant BAX protein, sequence (Q07812 whole entry, form in doubt): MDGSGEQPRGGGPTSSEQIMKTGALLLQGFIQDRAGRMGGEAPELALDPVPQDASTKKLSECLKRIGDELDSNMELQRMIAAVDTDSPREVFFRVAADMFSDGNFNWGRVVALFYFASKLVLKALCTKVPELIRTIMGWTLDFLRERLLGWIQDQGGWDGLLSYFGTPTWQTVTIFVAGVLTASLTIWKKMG

BCL-2 BH4 SAHBA (peptide)
EC50: 4.6 nM
